Assays:
recombinant Bri2(90-236) = target: T1, recombinant Bri2(90-236) (Homo sapiens, UniProt Q9Y287); test: ESI-MS binding of peptides to recombinant Bri2(90-236) (substrate specificity); settings: 20 μM Bri2(90-236); for complex formation of peptide with recombinant Bri2(90-236): 50 μM peptide (peptide/protein ratio 2.5)
T1 construct: His6 (N, cleaved yes); thioredoxin (N, cleaved yes); made in house; host or cells: E. coli Origami(DE3)pLysS, pET-32c vector
T1 sequence (Q9Y287 90-236): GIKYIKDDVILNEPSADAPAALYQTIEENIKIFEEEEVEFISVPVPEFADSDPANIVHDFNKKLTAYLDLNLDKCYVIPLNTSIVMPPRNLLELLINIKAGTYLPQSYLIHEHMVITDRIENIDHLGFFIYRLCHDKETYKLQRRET
Procedure: Prior to electrospray ionization mass spectrometry (ESI-MS), purified Bri2(90-236) (SEQ ID NO: 2) was rebuffered into 10 mM ammonium acetate, pH 7.0, using spin columns with a 3 kDa cut-off limit (Nanosep, Pall Corp., East Hills, N.Y., USA). Protein and peptides were mixed at 22° C. directly before analysis at a final protein concentration of 20 μM and a final peptide concentration of 50 μM. Data was acquired using a QTOF Ultima API mass spectrometer (Waters, Milford, Mass., USA) equipped with a Z-spray source operated in the positive-ion mode. Samples were introduced via nano-electrospray using metal-plated borosilicate glass capillary needles (Proxeon, Denmark). The source temperature was 80° C., the capillary voltage 1.7 kV, and the cone and RF lens 1 potentials were 100 and 38 V, respectively. The mass spectrometer was operated in single-reflector mode at a resolution of 10 000 (full width half maximum definition), and the mass scale was calibrated using myoglobin. Scans were acquired at a rate of 1 scan per 2 sec between 500 and 4000 m/z. The collision gas was argon at 5.2×10^−5 mbar. Mass spectra were smoothed using the Waters MassLynx software.
All peptides, with the exception of KFFEYNGKKFFE (SEQ ID NO: 15), ABri23 (SEQ ID NO: 4) and Aβ1-40 (SEQ ID NO: 11), were purchased from Thermo Electron (Darmstadt, Germany). KFFEYNGKKFFE was purchased from Interactiva (Ulm, Germany) and Aβ1-40 and disulfide-linked ABri23 were from Bachem (Bubendorf, Switzerland).
Peptides, except for KFFEYNGKKFFE, ABri23 and Aβ1-40, were acetylated at the N-terminus and amidated at the C-terminus. The compositions of all peptides were verified by ESI-MS and amino acid analysis. Peptide YYY was dissolved to a final concentration of 10 mM in 30% acetonitrile. VVV, FFF and LLL were dissolved in 50% isopropanol to a final concentration of 10 mM. KKK, GGG and AAA were dissolved in water to a final concentration of 10 mM, while KFFEYNGKKFFE and ABri23 were dissolved in water to final concentrations of 5.6 mM and 1 mM, respectively. All peptide samples were stored at −20° C., except for Aβ1-40 which was dissolved to a final concentration of 1 mM in water directly prior to analysis.
To further investigate the substrate specificity of Bri2(90-236), homotripeptides with aromatic (YYY, FFF), hydrophobic (VVV, LLL), charged (KKK) or small uncharged (AAA, GGG) side-chains, were employed to study binding, under maintained water solubility. […] The peptide sequences are denoted in each spectrum. Symbols * and ** indicate peaks corresponding to recombinant Bri2(90-236) with one or two peptide ligands, respectively. […] Bri2(90-236) also binds the peptide KFFEYNGKKFFE (FIG. 6).

Aβ1-40 = target: T2, Aβ1-40 (Homo sapiens, UniProt P05067); type: biochemical; settings: 0.1 and 1 molar equivalents to Aβ1-40; compared to the same amounts of Bri2(90-236); data not shown
T2 construct: made in house; host or cells: E. coli
Text: (§1) Aβ1-40 (SEQ ID NO: 11) and Aβ1-42 (SEQ ID NO: 12) were expressed in E. coli from synthetic genes and purified in batch format using ion exchange and size exclusion steps as described in Walsh et al., FEBS J. 2009, 276, 1266-1281, which results in highly pure monomeric peptide. Purified peptide was divided into 20-30 identical aliquots and frozen. Monomer was then isolated by gel filtration of an aliquot of purified peptide just prior to setting up each of the experiments listed below to remove traces of aggregate formed during freezing and thawing and to exchange buffer to the one used in the respective experiment. Monomer was collected in low-bind Ep-tubes ([…]) on ice, and the concentration was determined by absorbance or amino acid analysis after acid hydrolysis. The monomer was used as is or diluted to the desired concentration for the respective experiment. Bri2(90-236) (SEQ ID NO: 2) was expressed and purified as described in Example 1. Aggregation kinetics were studied by recording the Thioflavin T (ThT) fluorescence intensity as a function of time in a plate reader (FluoStar Omega from BMG Labtech, Offenberg, Germany). The fluorescence was recorded using bottom optics in half-area 96-well PEG-coated black polystyrene plates with clear bottom (Corning 3881) using 440 nm excitation filter and 480 nm emission filter. Aβ monomer was isolated by gel filtration as above in 20 mM Na-phosphate, 200 μM EDTA, 0.02% NaN3 (at pH 7.4 in the case of Aβ1-40 and at pH 8.0 for Aβ1-42) and diluted to 6 or 8 μM in the case of Aβ1-40 and 3 μM in the case of Aβ1-42 in the same buffer and supplemented with 20 μM ThT from a 2 mM stock. To each well in the 96-well plate was first added either 10 μl buffer (20 mM Tris/HCl pH 7.4) or 10 μl of Bri2(90-236) protein or control protein at ten times the desired final concentration in 20 mM Tris/HCl pH 7.4. To each well was then added 90 μl of the ice-cold Aβ monomer solution, and the plate was immediately placed in the plate reader at 37° C., with fluorescence read every 6 minutes with continuous shaking at 100 rpm between readings. Aβ1-40 was studied alone or with Bri2(90-236) at a concentration ranging from 60 nM to 6 μM. Aβ1-42 was studied alone or with Bri2(90-236) at a concentration ranging from 20 nM to 6 μM.

Aβ1-42 = target: T3, Aβ1-42 (Homo sapiens, UniProt P05067); test: ThT aggregation kinetics of Aβ1-42 (Example 4); type: biochemical; settings: 0.1 and 1 molar equivalents to Aβ1-42; compared to the same amounts of Bri2(90-236); data not shown
T3 construct: made in house; host or cells: E. coli
Text: as §1, with “Aβ1-40 was studied alone or with Bri2(90-236) at a concentration ranging from 60 nM to 6 μM. Aβ1-42 was studied alone or with Bri2(90-236) at a concentration ranging from 20 nM to 6 μM.” left out

T3 sequence (P05067 672-713): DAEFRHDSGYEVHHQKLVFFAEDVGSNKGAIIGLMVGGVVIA
T2 sequence (P05067 672-711): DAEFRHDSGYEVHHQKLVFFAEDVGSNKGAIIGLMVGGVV

Row | Substance | complex formation of peptide with recombinant Bri2(90-236) (recombinant Bri2(90-236)) | further results
1 | FFF: homotripeptide with aromatic side-chains (Ac-Phe-Phe-Phe-NH2) | No interactions were observed | –
2 | LLL: homotripeptide with hydrophobic side-chains (Ac-Leu-Leu-Leu-NH2) | No interactions were observed | –
3 | cystatin [reference compound] | – | effects of control protein on Aβ1-40 aggregation (ThT assay) (Aβ1-40): small; effects of control protein on Aβ1-42 aggregation (ThT assay) (Aβ1-42): small
4 | AAA: homotripeptide with small uncharged side-chains | No interactions were observed | –
5 | VVV: homotripeptide with hydrophobic side-chains (Ac-Val-Val-Val-NH2) | No interactions were observed | –
6 | KKK: homotripeptide with charged side-chains (Ac-Lys-Lys-Lys-NH2) | No interactions were observed | –
7 | GGG: homotripeptide with small uncharged side-chains (Ac-Gly-Gly-Gly-NH2) | No interactions were observed | –
8 | KFFEYNGKKFFE | found to form complexes | –
9 | YYY: homotripeptide with aromatic side-chains (Ac-Tyr-Tyr-Tyr-NH2) | found to form complexes | number of peptide molecules per Bri2(90-236) in complexes (recombinant Bri2(90-236); 50 μM peptide): one or two

Reference: US8785391B2, “Compound and method for treatment of alzheimer's disease and familial dementia” (Alphabeta AB, priority 2010, dated 2014)
